According to the supplement of paper PMC10567573:
± gives the standard deviation.

Test: protein stability index of a GFP-peptide fusion (GPS, HEK-293T) (PSI 1-6); higher = more stable
[1] = treatment: DMSO, c terminus: a fixed tail appended
[2] = treatment: MLN4924 1 uM, 8 h, c terminus: a fixed tail appended
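Note: 24-mer peptide tiles fused after GFP, lentivirally expressed, FACS-sorted into six equal bins by GFP/DsRed ratio, decoded by Illumina sequencing, PSI is the read-weighted mean bin number.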

Sequence	protein stability index [1]	protein stability index [2]	protein stability index (treatment: DMSO, c terminus: native)	protein stability index (treatment: MLN4924 1 uM, 8 h, c terminus: native)
GAPLLPPPLPPPSPPGSGRGPGAS [ACBD3]	5.23 ± 0.21	5.108 ± 0.027	–	–
ANGTVIAEFILLGLLEAPGLQPVV [OR3A1]	3.06 ± 0.61	2.7 ± 0.35	–	–
PPWGLGPGAGDPAPGIGPPEPWPG [MYCL]	3.63 ± 0.39	3.92 ± 0.058	–	–
SIKMGKRNGLHLPEQVQNEIKSMK [NLN]	4.02 ± 0.17	3.87 ± 0.55	–	–
CASDEGEVIVFGGCANNLLVHHRA [KLHDC2]	2.6 ± 0.35	2.27 ± 0.29	–	–
FHPIKETVVEEPVDITPYLDQLDE [INTS3]	3.98 ± 0.67	4.5 ± 0.44	–	–
SLTVPLLGAMMLLESPIDPQPLSF [APMAP]	2.46 ± 0.56	2.81 ± 0.51	–	–
NPVFQDSWDTESSGSDSGGSSSSS [FAM104A]	5.37 ± 0.37	5.54 ± 0.26	–	–
HSTLEYKVKERLGTLKNPPKKKMK [LCOR]	4.47 ± 0.26	4.73 ± 0.28	–	–
SILFGHENRVSTLRVSPDGTAFCS [GNB5]	2.88 ± 0.41	3.02 ± 0.13	–	–
TPINQNVSLHQASLGGCSQDFLLF [NFE2L1]	1.99 ± 0.55	2.6 ± 0.58	–	–
QDRDALHMEGLIVRERILGADNID [FEM1B]	4.38 ± 0.39	4.29 ± 0.28	–	–
TSEESRPRLSQLSVTDVTTSSLRL [TNXB]	4.18 ± 0.29	4.24 ± 0.26	–	–
KQIVSAVAHCHQSAIVLGDLKLRK [TRIB1]	2.77 ± 0.18	2.72 ± 0.27	–	–
PGGDQGGPPVGPLSLGLATVDIQN [WAS]	4.75 ± 0.22	4.71 ± 0.087	–	–
VVDKDKRNQCRYCRLKKCFRAGMK [HNF4A]	2.51 ± 0.065	2.75 ± 0.39	–	–
EIIKVTEQLIEAINNGDFEAYTKI [CAMK2D]	2.47 ± 0.12	2.63 ± 0.29	–	–
QGEMDRKCKQVKEKCKEEFVEEIK [ZMYND11]	4.91 ± 0.32	5.43 ± 0.24	–	–
VSAIIWEGNECKKMDMSVLEISGI [PHTF1]	2.11 ± 0.58	2.41 ± 0.83	–	–
TALHIACYNGQDAVVNELIDYGAN [ANKRD44]	2.69 ± 0.27	2.86 ± 0.24	–	–
SGVGIDGEVLSYLELAQFHNAHQL [RHOBTB1]	2.56 ± 0.33	2.67 ± 0.45	–	–
LTPKSTPVKTLPFSPSQFLNFWNK [MYBL2]	2.24 ± 0.26	2.4 ± 0.18	–	–
TQKFTDMVATANNRQTFVNSAIRF [CHIT1]	2.85 ± 0.32	3.17 ± 0.33	–	–

Sequence	protein stability index [1]	protein stability index [2]	protein stability index (treatment: DMSO, c terminus: native)	protein stability index (treatment: MLN4924 1 uM, 8 h, c terminus: native)
KLSETFLQIYQYVPKDQRLQAIKA [DLC1]	2.12 ± 0.38	2.28 ± 0.44	–	–
AQKLTIRLSSRYRYGQLIEINSHS [TRIP13]	2.17 ± 0.55	2.01 ± 0.27	–	–
EALLDRESENASLREKLRLREAEI [LRRC45]	4.77 ± 0.26	4.89 ± 0.083	–	–
MAPPAAPGRDRVGREDEDGWETRG [HES6]	5.2 ± 0.37	5.48 ± 0.16	–	–
GLQAPPPDDVDYATNPHVKPPYSY [FOXJ1]	4.42 ± 0.29	4.46 ± 0.19	–	–
GKSRLSPAGEMKPMPLSEGKSILL [BCL2L13]	3.44 ± 0.32	3.44 ± 0.32	–	–
MAQQQMTSSQKALMLELKSLQEEP [UBE2R2]	4.33 ± 0.28	4.29 ± 0.24	–	–
AVLGLYLLVFLILVGIFILAVSRP [SCARA5]	3.3 ± 0.071	2.58 ± 0.63	–	–
AGGIRESKESSKEKKLTVRQDLED [C22orf31]	5.56 ± 0.12	5.48 ± 0.3	–	–
GQDKQFAWHCSESGQRLGGYRTSA [WDFY2]	3.51 ± 0.24	3.24 ± 0.28	–	–
MAPKTKKGCKVTLPEKPVKLASHT [FBF1]	4.16 ± 0.15	4.21 ± 0.087	–	–
EGCELPDLPSSLLLPEDMALRNLP [SMG5]	4.4 ± 0.1	4.49 ± 0.15	–	–
MHPGRTTGKGPSTHTQIDQQPPRL [M1AP]	4.45 ± 0.1	4.511 ± 0.026	–	–
RELLEFTHMYLQSDDEMELEETEP [P3H4]	4.98 ± 0.18	5.15 ± 0.22	–	–
HTRSLNSIIHQMEKFSSSLHELSS [FBF1]	2.97 ± 0.21	3.06 ± 0.48	–	–
SSESSDAGLCMDSPSPMDPHMAEQ [CDC25B]	5.675 ± 0.013	5.21 ± 0.2	–	–
PITRKAAQLYTLWVTFQVLLYTSL [DHCR7]	3.07 ± 0.22	2.56 ± 0.51	–	–
ESFTMDDMSWTCGNQDYKYRVSDV [VDR]	3.08 ± 0.27	2.94 ± 0.13	–	–
GSGSSYVQNGTGNAYEEEANKQS [CNOT7]	–	–	5.37 ± 0.19	5.2 ± 0.23
VCRIGDWLQERYEIVGNLGEGTFG [CLK3]	2.22 ± 0.42	2.37 ± 0.33	–	–
RPEITSRAINLLFDIARIERCNQL [ZER1]	2.47 ± 0.55	2.35 ± 0.59	–	–
PECTRCGHGIVGTIVKARDKLYHP [PDLIM4]	2.35 ± 0.13	2.56 ± 0.21	–	–
LQSCQAEIIELRRTVNALEIELQA [KRT34]	2.15 ± 0.45	2.11 ± 0.29	–	–

Sequence	protein stability index [1]	protein stability index [2]	protein stability index (treatment: DMSO, c terminus: native)	protein stability index (treatment: MLN4924 1 uM, 8 h, c terminus: native)
DFGSNCRFSHMSERDLQELSIQVE [ZMAT5]	3.05 ± 0.49	2.91 ± 0.28	–	–
HRPSLNSVSLQINCQSVAQMNLLQ [DLC1]	2.4 ± 0.4	2.52 ± 0.32	–	–
AAGGDGELGSPLRRSISSSRSENV [PSD2]	5.07 ± 0.11	5.1 ± 0.19	–	–
NPPSDFSFQNMNSKRKAETWKKNR [STK38L]	4.65 ± 0.45	4.42 ± 0.22	–	–
LVVADDKMAAFHGAGLKRYLLTVM [ADAMTS4]	2.72 ± 0.63	2.35 ± 0.61	–	–
IVSTQITRPSGNNGNRRRRKLRKT [PHTF1]	4.35 ± 0.35	4.46 ± 0.23	–	–
PTPSTPRPTPQDWLHRRAQILEIL [ADAMTS4]	2.97 ± 0.23	2.98 ± 0.25	–	–
LPCVVQEGAIVMARGRHVGSSETN [PYCR3]	4.42 ± 0.36	–	–	–
PEGPEPAAPGKQPGRGHTHAAQGG [ELOA2]	5.39 ± 0.27	5.51 ± 0.16	–	–
SNHSAQDSAVENLLLLSKAKLVPS [IKZF1]	3.81 ± 0.22	3.95 ± 0.32	–	–
EVVTPDNMCMGRTSRGKLGGQDSF [ETS1]	3.71 ± 0.16	3.87 ± 0.2	–	–
KAASLARNLAKRRRTYLGGAAGRS [RSPH3]	3.09 ± 0.34	3.56 ± 0.45	–	–
LWNGDKYAATTTPFTPLHIKVKPK [TRIM39]	2.99 ± 0.27	3.28 ± 0.38	–	–
QYMNEGELRVLADTYDSVYLHPNS [HDAC6]	2.83 ± 0.21	3.33 ± 0.52	–	–
PPPLTSPSHGSLSHSKAPSGSQMS [NCF4]	4.83 ± 0.23	4.92 ± 0.35	–	–
ALLGYEMVQVACGASHVLALSTER [NEK8]	2.5 ± 0.88	2.12 ± 0.44	–	–
TTIKRKREDDKLVVECVMKGVTST [FABP4]	3.9 ± 0.52	3.9 ± 0.19	–	–
IAVRKSRDKAKMRNLETQHKVLEL [CEBPB]	3.14 ± 0.36	3.54 ± 0.12	–	–
SPSCPEEALAATWEQPWASEVFGP [PXN]	3.62 ± 0.24	3.63 ± 0.14	–	–
YAVENEHMNRLQSQRAMLLQGTES [VTI1B]	3.94 ± 0.31	4.1 ± 0.2	–	–
TFLSRILTGLNYEAPKYHIPYWVA [NSDHL]	2.77 ± 0.67	3 ± 0.63	–	–
SMVDLTSVTLEDVTPKKSPPPKTN [FAN1]	5.06 ± 0.12	4.9 ± 0.27	–	–
STSFLPELSSVHPPHYFFTYRIRI [FBXO3]	2.66 ± 0.33	2.85 ± 0.48	–	–

Sequence	protein stability index [1]	protein stability index [2]	protein stability index (treatment: DMSO, c terminus: native)	protein stability index (treatment: MLN4924 1 uM, 8 h, c terminus: native)
IEIVHISTVQILTEGFPPGGGNAR [ZFYVE21]	2.51 ± 0.67	2.72 ± 0.74	–	–
LQHTQELFPQWHLPIKIAAIIASL [STEAP1]	2.16 ± 0.35	2.1 ± 0.24	–	–
DSGQNAWLSYRLLKASEPGLFAVG [PCDHGA10]	2.14 ± 0.09	2.13 ± 0.063	–	–
NIPERASGPEGNLNQIVTEPDANF [FAM104B]	5.35 ± 0.15	5.23 ± 0.47	–	–
IATGPFVAFGIEADDESLLRTSNG [DNAAF3]	3.9 ± 0.16	4.01 ± 0.22	–	–
AIGRVRVLEEQLVKAKEQIENYKK [FUT8]	4.03 ± 0.16	4.28 ± 0.27	–	–
MMPLAEAGALAQGGGPSATEWACI [C6orf223]	3.65 ± 0.34	3.52 ± 0.25	–	–
QKVVVTTPLHRDKTPLHQKHAAFV [MYBL2]	3 ± 0.2	3.14 ± 0.32	–	–
KDLQKEQKTLQVKCQHYKKKRTEQ [CEP70]	4.92 ± 0.31	4.87 ± 0.032	–	–
SRRASESSLSSESSESSDAGLCMD [CDC25B]	5.06 ± 0.39	5.33 ± 0.18	–	–
RGDRGPGPALAGEPAGSLRELGVW [C2CD2L]	3.25 ± 0.14	3.55 ± 0.27	–	–
ADTGRIHRFVEKPQVFVSNKINAG [GMPPB]	3.46 ± 0.32	3.84 ± 0.18	–	–
DKPLPPPPPGSLSRTQEPSLGKQK [SOAT2]	5.27 ± 0.28	5.41 ± 0.21	–	–
MLELRHRGSCPGPREAVSPPHREG [CDS1]	4.26 ± 0.29	4.39 ± 0.29	–	–
LLQKYNMQFLIRSHECKPEGYEFC [PPEF2]	2.5 ± 0.84	2.27 ± 0.49	–	–
SPIKLSPTSPVYRGSSSGPSSPAR [MTUS2]	4.34 ± 0.21	4.39 ± 0.2	–	–
LEDFFVMSDYRGFGIGSEILKNLS [SAT1]	2.38 ± 0.14	2.28 ± 0.44	–	–
FLDLFRYRVLLGHTLILMFIWFVC [SLC22A15]	2.73 ± 0.42	2.85 ± 0.71	–	–
QFRLKEAFDYIKQRRSMVSPNFGF [DUSP5]	2.19 ± 0.31	2.22 ± 0.17	–	–
DGRFEKRQGNPSWKKQQKCDECGK [ZNF396]	5.03 ± 0.2	5.2 ± 0.11	–	–
